These results are taken from the supplement of paper PMC12042874.

± gives the uncertainty stated by the source.

The series is described as follows: amyloid nucleation score (Sup35N fusion, yeast selection) (log enrichment); library NNK3; higher = more nucleation; inactive = no reads after selection. Summed up: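 Growth for 7 days at 30°C on medium lacking adenine and uracil followed a 24-hour induction with 100 μM copper sulfate of psi-negative yeast expressing peptides of 20 random codons fused to Sup35N. Input and output plasmid inserts were sequenced with Illumina, and sequences with under 100 input reads were excluded. Nucleation score is the DiMSum log enrichment of output over input reads, centred on the mode score of non-aggregating sequences.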
For the substance QEWVRYYYFVLYFNYVNGSW, the amyloid nucleation score result was “inactive”.

Consider QFEHF, for which the amyloid nucleation score entry was “inactive”.

In the case of QFIINDSFYINQNNRRYSKV, the amyloid nucleation score result was “inactive”.

In the case of QGGNAISRYKWDCIR, the amyloid nucleation score entry is “inactive”.

The substance QGLPVSVSFVGEIYLLLF showed an amyloid nucleation score of 2.32 ± 0.053.

Consider QGNSRRSLINLHSLNKNILH, for which the amyloid nucleation score result was “inactive”.

Turning to QGNWHYWCKDVRKLSLPKEL, the amyloid nucleation score result was “inactive”.

As for QGSHRGMKITGISWTVLGYW, the amyloid nucleation score entry was “inactive”.

For the substance QGVVV, the amyloid nucleation score entry was “inactive”.

Substance QISEFKDVLLCVCVKISLGR gave an amyloid nucleation score of 1.7 ± 0.09.

In the case of QITRLPSNYVYETWSEKVFY, the amyloid nucleation score result is “inactive”.

Take QKAYKYSDI: the amyloid nucleation score entry was “inactive”.

Turning to QKQFYGWVAESFARGATIPR, the amyloid nucleation score was determined as 0.871 ± 0.21.

Consider QLEYNYCDKLVT, for which the amyloid nucleation score entry is “inactive”.

In the case of QLHTDYPFGACLFSCDGLDM, the amyloid nucleation score entry was “inactive”.

On to QLVVRCPCYNETVG, for which the amyloid nucleation score entry is “inactive”.

QLYSHNRYTLGYTMLSRFVS: the amyloid nucleation score entry is “inactive”.

Regarding QMFSLTFIVMFLFFPSRGCR, the amyloid nucleation score entry was “inactive”.

Turning to QMKKLWFF, the amyloid nucleation score entry is “inactive”.

QMSFQSSYQVRLFLVPPFQW showed an amyloid nucleation score of 0.412 ± 0.23.

For QMSGMFTLVDWT, the amyloid nucleation score result is “inactive”.

As to QMYSLWCKKCMFYDGCEGVS, the amyloid nucleation score result was “inactive”.

Regarding QNHSNVGTFDDSA, the amyloid nucleation score entry is “inactive”.

QNRFDLPGMSQRSTHDRAPS gave an amyloid nucleation score of -0.03 ± 0.73.

For QPLHCK, the amyloid nucleation score entry is “inactive”.

Take QQCCTLVCWRRMI: the amyloid nucleation score result was “inactive”.

Take QQSWFTIYDVILYR: the amyloid nucleation score entry is “inactive”.

With QRDVDLMVSIGTPTSNRYET, the amyloid nucleation score entry is “inactive”.

On to QRISMIALDRFD, for which the amyloid nucleation score result was “inactive”.

On to QRKVSWHAGYSA, for which the amyloid nucleation score entry was “inactive”.

On to QRLCCPRNL, for which the amyloid nucleation score entry is “inactive”.

QRMTLNLDRCPMSYWGSTIP: the amyloid nucleation score result is “inactive”.

Regarding QRNMVSEGATRCLSTDFPCL, the amyloid nucleation score entry was “inactive”.

On to QRNNFLLTMVTCFDLKL, for which the amyloid nucleation score result is “inactive”.

For QRSEV, the amyloid nucleation score entry was “inactive”.

Take QSCVIVLKIGFWDVHSSMTF: the amyloid nucleation score was determined as 0.426 ± 0.19.

On to QSFIRSFIVYVKDALGAHHG, for which the amyloid nucleation score result is “inactive”.

Substance QTHMTFYVCMFRGTCNGNMC showed an amyloid nucleation score of 2.1 ± 0.051.

Regarding QVSFM, the amyloid nucleation score entry is “inactive”.

QWFAWARQWL: the amyloid nucleation score result is “inactive”.

As for QWGSWE, the amyloid nucleation score result is “inactive”.

As for QWIGISNRLLYKDWLNWRYE, the amyloid nucleation score result is “inactive”.

On to QWILHNFTVGARPGPVRTKE, for which the amyloid nucleation score entry was “inactive”.

On to QWKVLLRACHRLEDALCCIS, for which the amyloid nucleation score entry was “inactive”.

In the case of QYANVGSCVCDRIIRCFYGW, the amyloid nucleation score result is “inactive”.

With QYCDSMTLINQPAAIRGLLW, the amyloid nucleation score entry was “inactive”.

Regarding QYDLDWFIGRSNARDGLTDW, the amyloid nucleation score entry was “inactive”.

QYFRLLTLISRPFKTHRGVG: the amyloid nucleation score entry is “inactive”.

Regarding QYLEAWRCTHFTVGALLLMG, the amyloid nucleation score entry was “inactive”.

The substance QYLHAGGHVIVGTWYEVNMG returned an amyloid nucleation score of 1.36 ± 0.16.

As to QYVCVRS, the amyloid nucleation score result was “inactive”.

With RACML, the amyloid nucleation score entry was “inactive”.

With RAECSISSIIIYCAGRPSLI, the amyloid nucleation score turned out to be 1.07 ± 0.098.

RAFLL: the amyloid nucleation score entry was “inactive”.

Regarding RAICGMNFCNISHLT, the amyloid nucleation score was 3.05 ± 0.067.

As for RANLPRLFQNDHNSWLDCVA, the amyloid nucleation score entry was “inactive”.

Regarding RARGDTIK, the amyloid nucleation score result was “inactive”.

As to RCDCLRRNGSLHSQFNVSGG, the amyloid nucleation score is 1.02 ± 0.2.

With RCLEERH, the amyloid nucleation score result is “inactive”.

Take RCLGLML: the amyloid nucleation score entry was “inactive”.

With RCLTEA, the amyloid nucleation score result is “inactive”.

On to RCMPRCALACTRLSPGRSVV, for which the amyloid nucleation score entry is “inactive”.

Consider RCSLLRNIG, for which the amyloid nucleation score result was “inactive”.

Regarding RCSWKTLPMYLMYCCTACHS, the amyloid nucleation score entry is “inactive”.

Consider RCVLSNSNLCFKFFRVQTME, for which the amyloid nucleation score entry is “inactive”.

Take RCVRVIFSVMGDWVFISKNE: the amyloid nucleation score result is “inactive”.

RCYKMLDLSILDIRYIVMLR: the amyloid nucleation score entry was “inactive”.

On to RCYYMAMVMYTLLPLLRAET, for which the amyloid nucleation score is -0.074 ± 0.32.

With RDFRKSIYTCLEYYWHMVVT, the amyloid nucleation score result was “inactive”.

With RDISIFRFRYTRRSWWLSFG, the amyloid nucleation score entry is “inactive”.

On to RDMFIYKTCMKVCVQLPYII, for which the amyloid nucleation score entry was “inactive”.

With RDMYLLLREHGKGTIGKPWG, the amyloid nucleation score result was “inactive”.

In the case of RDPASGVSMCTIIIVKGYTI, the amyloid nucleation score turned out to be 0.57 ± 0.2.

RDSCFNIDFKEEVVRKVSMA had an amyloid nucleation score of 0.827 ± 0.18.

For RDTGPPMFWREAVSRYR, the amyloid nucleation score result was “inactive”.

RDWCSNLMYYDYPVTEGCDT: the amyloid nucleation score entry was “inactive”.

Take REFKY: the amyloid nucleation score entry was “inactive”.

As to RELVNSNALGNFLWETVCFS, the amyloid nucleation score entry was “inactive”.

As to REREF, the amyloid nucleation score entry is “inactive”.

As to RETLS, the amyloid nucleation score result was “inactive”.

With RFDESTRVCV, the amyloid nucleation score entry is “inactive”.

As for RFDIK, the amyloid nucleation score entry was “inactive”.

On to RFDWRLSCTGRNMVASLLFV, for which the amyloid nucleation score result was “inactive”.

On to RFEFMGFSYPCHLTWLLVGY, for which the amyloid nucleation score result is “inactive”.

As for RFEYMGNVMES, the amyloid nucleation score entry is “inactive”.

Take RFIGGTYH: the amyloid nucleation score result was “inactive”.

On to RFIVCCKTGCVY, for which the amyloid nucleation score result is “inactive”.

For the substance RFNSWRSCIWLM, the amyloid nucleation score entry was “inactive”.

On to RFQCWVWSQ, for which the amyloid nucleation score entry is “inactive”.

In the case of RFSWNENVGVDGQHLPEVER, the amyloid nucleation score result is “inactive”.

Regarding RFSYSDTI, the amyloid nucleation score result was “inactive”.

On to RFTDRCTLHFQMFVVLRAVI, for which the amyloid nucleation score entry was “inactive”.

Regarding RFVYRVNNRSKVLSEARMCI, the amyloid nucleation score entry is “inactive”.

As to RFWFWQPVVYIIRWIRVPLA, the amyloid nucleation score entry is “inactive”.

As for RFWMRKY, the amyloid nucleation score result was “inactive”.

Take RFYGDM: the amyloid nucleation score entry is “inactive”.

Substance RFYRCNYYRM displayed an amyloid nucleation score of 2.17 ± 0.084.

RFYVYIINHHAPVYWVSRYS: the amyloid nucleation score is 2.59 ± 0.065.

For RGAIIFGKTMIYDSC, the amyloid nucleation score result was “inactive”.

RGAVLLKNWL: the amyloid nucleation score entry is “inactive”.

Substance RGCGVQMS showed an amyloid nucleation score of 0.882 ± 0.24.

Consider RGHNRRMYTWRVCRPSHHCK, for which the amyloid nucleation score entry was “inactive”.

Regarding RGIHEIGVMLKSVSQLE, the amyloid nucleation score entry is “inactive”.

As for RGKLFLSLLIVYFTLFLSVM, the amyloid nucleation score entry was “inactive”.

RGMWSFHGYWRTGKYMATGG: the amyloid nucleation score result was “inactive”.

For RGNIWIHKK, the amyloid nucleation score worked out at 0.404 ± 0.15.

Take RGPVNCYYRISPRRPRHVSE: the amyloid nucleation score entry is “inactive”.

The substance RGSMRPPSVSQMQCRYKDRF showed an amyloid nucleation score of -0.663 ± 1.1.

In the case of RGVAVR, the amyloid nucleation score was determined as 1.89 ± 0.077.

RHCGRALCDWLVIRWGSGYT: the amyloid nucleation score result was “inactive”.

Take RHGFWSVSFVSRQFSNILSC: the amyloid nucleation score result was “inactive”.

Turning to RHLLTISKPEMMCGDADEYR, the amyloid nucleation score entry is “inactive”.

As to RHQDYLHADGLNMAISITRI, the amyloid nucleation score result was “inactive”.

In turn, RHRQSPYIINSVVIFGNQGT came in with an amyloid nucleation score of 2.5 ± 0.067.

Consider RHSLMRDYYNFLMLDCTE, for which the amyloid nucleation score entry is “inactive”.

As for RHSNDCMNFEVIILIDSCLE, the amyloid nucleation score result is “inactive”.

With RHSNMSRIPMVLNKEKPGTR, the amyloid nucleation score result is “inactive”.

With RHTPDSLQYFLVFKVSYGFL, the amyloid nucleation score entry is “inactive”.

RHVFFLC: the amyloid nucleation score entry is “inactive”.

As for RIDTRNDRSNYR, the amyloid nucleation score entry is “inactive”.

On to RIHVSKLLTWTGSSLVVWSA, for which the amyloid nucleation score result is “inactive”.

Take RIINCDKLSQTTALYIKTFM: the amyloid nucleation score entry was “inactive”.

RIQCLCVDVLSVMLSVHA came in with an amyloid nucleation score of 1.48 ± 0.11.

Take RISVAGLCASEAVAKCLRRG: the amyloid nucleation score entry was “inactive”.

In the case of RIVDGFLTW, the amyloid nucleation score result is “inactive”.

As for RIVFSKVMLVEIRTSLWFCT, the amyloid nucleation score result is “inactive”.

Regarding RIVIPMVWEYIFSDFVFG, the amyloid nucleation score was found to be 1.72 ± 0.088.

As for RIVSRWCDNLNHTDCECCVC, the amyloid nucleation score entry is “inactive”.

In the case of RKCLMMCDYCITLNM, the amyloid nucleation score was 2.29 ± 0.06.

On to RKEVLYSYRNHLK, for which the amyloid nucleation score result was “inactive”.

On to RKFDPSISGSCWNVGISCVV, for which the amyloid nucleation score result was “inactive”.

With RKGFKAIGY, the amyloid nucleation score entry is “inactive”.

For RKKLEGVFVRLFQFANPIVG, the amyloid nucleation score entry was “inactive”.

For RKLSAHLQEGD, the amyloid nucleation score result is “inactive”.
